{
  "source": "patent US20100204091",
  "proteins": {"B1": {"name": "NF-κB-inducing kinase, NIK, (MAP3K14) (protein)", "chain": "MAVMEMACPGAPGSAVGQQKELPKAKEKTPPLGKKQSSVYKLEAVEKSPVFCGKWEILNDVITKGTAKEGSEAGPAAISIIAQAECENSQEFSPTFSERIFIAGSKQYSQSESLDQIPNNVAHATEGKMARVCWKGKRRSKARKKRKKKSSKSLAHAGVALAKPLPRTPEQESCTIPVQEDESPLGAPYVRNTPQFTKPLKEPGLGQLCFKQLGEGLRPALPRSELHKLISPLQCLNHVWKLHHPQDGGPLPLPTHPFPYSRLPHPFPFHPLQPWKPHPLESFLGKLACVDSQKPLPDPHLSKLACVDSPKPLPGPHLEPSCLSRGAHEKFSVEEYLVHALQGSVSSGQAHSLTSLAKTWAARGSRSREPSPKTEDNEGVLLTEKLKPVDYEYREEVHWATHQLRLGRGSFGEVHRMEDKQTGFQCAVKKVRLEVFRAEELMACAGLTSPRIVPLYGAVREGPWVNIFMELLEGGSLGQLVKEQGCLPEDRALYYLGQALEGLEYLHSRRILHGDVKADNVLLSSDGSHAALCDFGHAVCLQPDGLGKSLLTGDYIPGTETHMAPEVVLGRSCDAKVDVWSSCCMMLHMLNGCHPWTQFFRGPLCLKIASEPPPVREIPPSCAPLTAQAIQEGLRKEPIHRVSAAELGGKVNRALQQVGGLKSPWRGEYKEPRHPPPNQANYHQTLHAQPRELSPRAPGPRPAEETTGRAPKLQPPLPPEPPEPNKSPPLTLSKEESGMWEPLPLSSLEPAPARNPSSPERKATVPEQELQQLEIELFLNSLSQPFSLEEQEQILSCLSIDSLSLSDDSEKNPSKASQSSRDTLSSGVHSWSSQAEARSSSWNMVLARGRPTDTPSYFNGVKVQIQSLNGEHLHIREFHRVKVGDIATGISSQIPAAAFSLVTKDGQPVRYDMEVPDSGIDLQCTLAPDGSFAWSWRVKHGQLENRP"}},
  "target": "T1, SIVA2",
  "T1 chain": "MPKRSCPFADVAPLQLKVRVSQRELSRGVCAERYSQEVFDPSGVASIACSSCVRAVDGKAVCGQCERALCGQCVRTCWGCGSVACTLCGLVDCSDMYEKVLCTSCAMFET",
  "data": [
    {"protein": "B1", "values": [
      {"measurement": "in vitro kinase assay (phosphorylation of SIVA2)", "value": "NIK readily phosphorylated SIVA2"}
    ]}
  ]
}
